Source: patent publication US20230060574A1 (Ablynx, published 2023)

How the values were obtained:
Assay in all cases: SPR ProteOn, SA immobilized, pH 7.4
[1] = molecular target: T1, human serum albumin (Sigma-Aldrich A3782) (human, UniProt P02768 25-609)
T1 construct: Bought protein; also called HSA; human SA

[2] = molecular target: T2, cynomolgus monkey serum albumin (generated in-house) (cynomolgus monkey, UniProt A2V9Z4 25-608, limits assumed)
T2 construct: also called cyno SA

[3] = molecular target: T3, rat serum albumin (Sigma-Aldrich A4538) (rat, UniProt P02770 25-608)
T3 construct: Bought protein; also called rat SA

[4] = molecular target: T4, mouse serum albumin (Albumin Bioscience 2601) (mouse, UniProt P07724 25-608)
T4 construct: Bought protein; also called mouse SA

[5] = molecular target: T5, guinea pig serum albumin (Gentaur GPSA62) (guinea pig)
T5 construct: Bought protein; also called guinea pig SA

[6] = molecular target: T6, dog serum albumin (Abcam 119814) (dog, UniProt P49822 25-608)
T6 construct: Bought protein; also called dog SA

[7] = molecular target: T7, pig serum albumin (Sigma-Aldrich A4414) (pig, UniProt P08835 25-607)
T7 construct: Bought protein; also called pig SA

koff [1]: 0.00027 s⁻¹ | kon [1]: 610000 M⁻¹ s⁻¹ | koff [2]: 0.00023 s⁻¹ | kon [2]: 520000 M⁻¹ s⁻¹ | koff [3]: 8e-05 s⁻¹ | kon [3]: 1.2e+06 M⁻¹ s⁻¹ | koff [4]: 0.00025 s⁻¹ | kon [4]: 910000 M⁻¹ s⁻¹ | Kd [5]: 0.3 nM | koff [5]: 0.00031 s⁻¹ | kon [5]: 1e+06 M⁻¹ s⁻¹ | koff [6]: 0.00084 s⁻¹ | kon [6]: 720000 M⁻¹ s⁻¹ | koff [7]: 0.0046 s⁻¹ | kon [7]: 100000 M⁻¹ s⁻¹
B1: serum albumin binder of SEQ ID NO:19 (invention), T023500029 (VHH)
VHH: EVQLVESGGGVVQPGDSLRLSCAASGGTFSTYVMGWFRQAPGKEREFVSAISQNSIHTYYANSVKGRFTISRDNSKNTVYLQLNSLRPEDTALYYCAASRFTSWYTADYEYDYWGQGTLVTVSS
notes: No tag is mentioned there
